Results: US20150183883A1 (Genentech, published 2015)

T1: endothelin B receptor (ETBR) on the surface of UACC-257X2.2 melanoma cells (human, UniProt P24530 27-442)
T1 construct: Endogenous ETBR on UACC-257X2.2 melanoma cells (parental and resistant lines); also called EDNRB; EDNBR
T1 sequence: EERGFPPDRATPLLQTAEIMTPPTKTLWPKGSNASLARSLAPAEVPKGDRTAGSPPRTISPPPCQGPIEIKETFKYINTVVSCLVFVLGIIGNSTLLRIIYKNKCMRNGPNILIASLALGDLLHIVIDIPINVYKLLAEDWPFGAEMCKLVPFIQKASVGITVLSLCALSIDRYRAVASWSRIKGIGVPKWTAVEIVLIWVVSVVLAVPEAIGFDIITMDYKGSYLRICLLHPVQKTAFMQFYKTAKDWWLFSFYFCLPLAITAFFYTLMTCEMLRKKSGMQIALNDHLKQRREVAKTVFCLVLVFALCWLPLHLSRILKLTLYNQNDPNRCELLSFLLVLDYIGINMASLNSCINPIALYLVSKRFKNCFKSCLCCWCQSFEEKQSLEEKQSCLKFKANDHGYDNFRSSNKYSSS


Molecular target: T1, endothelin B receptor (ETBR) on the …
Test: flow cytometry (FACS) on parental and resistant UACC-257X2.2 cells
Method: Expression of ETBR on the surface of the in vivo- and in vitro-derived resistant UACC-257X2.2 cells and the parental UACC-257X2.2 cells was then determined by FACS.

binding result | Binder
binds | ch5E9 (antibody, human IgG1, kappa, V domains shown, Naked antibody used as FACS staining reagent and detected with an anti-human Alexa 488 conjugate; also called anti-ETBR antibody; chimeric 5E9) VH: QVQLLQSGAELARPGASVKLSCKASGYTFTSYWMQWVKQRPGQGLEWIGTIYPGDGDTSYAQKFKGKATLTTDKYSSTAYMQLSSLASEDSAVYYCARWGYAYDIDNWGQGTLVTVSS VL: not shown
binds | hu5E9.v1 (antibody, human IgG1, kappa, V domains shown, Naked antibody used as FACS staining reagent and detected with an anti-human Alexa 488 conjugate; also called anti-ETBR antibody; humanized 5E9 version 1) VH: EVQLVESGGGLVQPGGSLRLSCAASGYTFTSYWMQWVRQAPGKGLEWIGTIYPGDGDTSYAQKFKGRATLSTDKSKNTAYLQMNSLRAEDTAVYYCARWGYAYDIDNWGQGTLVTVSS VL: DIQMTQSPSSLSASVGDRVTITCKSSQSLLDSDGKTYLNWLQQKPGKAPKRLIYLVSKLDSGVPSRFSGSGSGTDFTLTISSLQPEDFATYYCWQGTHFPYTFGQGTKVEIKR
